The target of this assay is AG-tagged DDB1 (DNA damage-binding protein 1) (human) (UniProt Q16531). Briefly: Fluoppi.
Sequence of UniProt Q16531 (Q16531 whole entry): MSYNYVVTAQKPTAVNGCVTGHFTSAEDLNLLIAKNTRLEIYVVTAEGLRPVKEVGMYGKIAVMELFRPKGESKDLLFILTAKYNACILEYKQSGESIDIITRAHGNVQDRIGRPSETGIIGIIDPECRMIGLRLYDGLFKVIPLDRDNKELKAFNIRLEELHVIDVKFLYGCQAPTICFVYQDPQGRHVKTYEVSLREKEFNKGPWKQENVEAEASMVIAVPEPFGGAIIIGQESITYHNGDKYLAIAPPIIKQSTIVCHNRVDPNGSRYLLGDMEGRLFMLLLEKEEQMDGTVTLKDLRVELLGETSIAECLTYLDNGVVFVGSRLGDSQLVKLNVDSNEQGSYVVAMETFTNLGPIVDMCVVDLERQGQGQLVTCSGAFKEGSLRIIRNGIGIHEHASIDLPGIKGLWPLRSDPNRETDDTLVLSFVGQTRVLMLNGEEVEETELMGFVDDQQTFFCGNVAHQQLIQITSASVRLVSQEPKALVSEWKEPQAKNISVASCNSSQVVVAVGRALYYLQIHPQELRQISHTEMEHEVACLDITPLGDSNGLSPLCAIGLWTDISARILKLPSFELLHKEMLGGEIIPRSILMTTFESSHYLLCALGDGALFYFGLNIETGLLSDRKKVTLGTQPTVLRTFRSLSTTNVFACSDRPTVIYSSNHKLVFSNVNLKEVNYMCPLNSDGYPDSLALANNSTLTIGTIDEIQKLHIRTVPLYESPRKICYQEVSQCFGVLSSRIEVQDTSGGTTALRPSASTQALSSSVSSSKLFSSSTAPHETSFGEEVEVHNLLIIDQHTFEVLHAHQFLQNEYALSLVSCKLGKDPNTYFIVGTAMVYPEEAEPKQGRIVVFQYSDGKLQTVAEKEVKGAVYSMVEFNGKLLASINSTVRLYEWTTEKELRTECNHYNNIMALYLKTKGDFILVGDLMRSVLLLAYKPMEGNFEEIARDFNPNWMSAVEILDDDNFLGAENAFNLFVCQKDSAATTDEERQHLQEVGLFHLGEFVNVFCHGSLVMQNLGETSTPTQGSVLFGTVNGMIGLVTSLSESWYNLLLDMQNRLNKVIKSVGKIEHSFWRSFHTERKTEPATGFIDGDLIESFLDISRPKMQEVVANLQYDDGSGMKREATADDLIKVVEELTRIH

Regarding “Ash-tagged hepatitis B virus X protein (full-length HBx, wild type) (natural protein)”, the percent of fluorescent puncta left with NTZ was 50%.

The values above are taken from PMC8056151.
